Experimental findings from patent US20140193915, “COMPOSITIONS AND METHODS FOR CUSTOM SITE-SPECIFIC DNA RECOMBINASES” (Monsanto Technology, LLC, published 2014) are described below.

Where a chain is given by its changes, count along the chain named.

The target of series [1] is T1, sN-TALER N4.2 (synthetic).
T1 chain: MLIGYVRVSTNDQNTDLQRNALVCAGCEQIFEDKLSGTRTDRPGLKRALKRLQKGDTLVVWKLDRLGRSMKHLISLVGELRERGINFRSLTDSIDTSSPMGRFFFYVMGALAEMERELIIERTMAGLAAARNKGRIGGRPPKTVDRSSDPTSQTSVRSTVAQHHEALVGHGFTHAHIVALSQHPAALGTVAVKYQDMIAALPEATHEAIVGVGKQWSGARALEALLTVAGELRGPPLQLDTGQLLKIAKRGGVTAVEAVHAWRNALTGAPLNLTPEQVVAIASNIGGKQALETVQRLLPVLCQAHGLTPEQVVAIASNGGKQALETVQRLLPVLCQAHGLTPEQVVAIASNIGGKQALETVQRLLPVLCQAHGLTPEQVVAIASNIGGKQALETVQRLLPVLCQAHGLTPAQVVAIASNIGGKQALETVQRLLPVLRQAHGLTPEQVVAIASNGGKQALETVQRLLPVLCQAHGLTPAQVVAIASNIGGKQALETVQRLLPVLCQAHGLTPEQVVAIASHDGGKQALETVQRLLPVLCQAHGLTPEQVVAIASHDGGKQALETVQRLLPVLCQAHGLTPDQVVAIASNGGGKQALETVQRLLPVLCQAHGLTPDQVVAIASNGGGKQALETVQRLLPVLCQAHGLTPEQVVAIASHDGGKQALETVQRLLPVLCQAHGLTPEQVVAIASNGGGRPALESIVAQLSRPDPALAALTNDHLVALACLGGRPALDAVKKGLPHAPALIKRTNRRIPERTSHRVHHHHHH
Kind of series: cell_activity; E. coli. How it is done: (§1) The co-transformed bacteria were plated on media with chloramphenicol, kanamycin, and X-gal then incubated at 37° C. for 18 to 36 hours. Control samples consisted of transformations using the reporter construct alone. Control transformants were similarly plated. The bacterial transformation protocol was either heat shock or electroporation per standard molecular biology techniques.
(§2) For each of these N-TALER chimera expression constructs, from one to three independent clones were selected for plasmid purification. These N-TALER chimera expression constructs were co-transformed with five of the N-TALER reporter constructs, as indicated in Table 15. […] In contrast to the result for pN-TALER N4.2.2, the chimera sN-TALER N4.2.2, with the same truncation point but a specific recombinase catalytic domain, reporters with 20, 24, or 40 bp of TALER central sequence length were efficiently recombined (score of 1) while reporters with 30 or 50 bp of TALER central sequence length were not recombined (score of 5). For the chimera sN-TALER N4.2, reporters with 20, 24, or 40 bp of TALER central sequence length were efficiently recombined (score of 1); the reporter with 30 bp of TALER central sequence length was poorly recombined (score of 3); and the reporter with 50 bp of TALER central sequence length was not recombined (score of 5). For the chimera pN-TALER N4.2, the recombination efficiency on the reporters tested varied from intermediate (scores of 3 and 4) to none (score of 5). […] In contrast to the result for sN-TALER N3.2, the chimera pN-TALER N3.2, with the same truncation point but a permissive recombinase catalytic domain, recombination efficiency on the reporters tested varied from efficient (scores of 1.5, 2, and 3) to none (score of 5). For both chimeras sN-TALER V.2 and pN-TALER V.2, there was efficient recombination (scores of 1, 1.5, and 2) of the 5 N-TALER reporter constructs tested.

Series [2] has as its target T2, sN-TALER N4.2.2 (synthetic).
T2 chain: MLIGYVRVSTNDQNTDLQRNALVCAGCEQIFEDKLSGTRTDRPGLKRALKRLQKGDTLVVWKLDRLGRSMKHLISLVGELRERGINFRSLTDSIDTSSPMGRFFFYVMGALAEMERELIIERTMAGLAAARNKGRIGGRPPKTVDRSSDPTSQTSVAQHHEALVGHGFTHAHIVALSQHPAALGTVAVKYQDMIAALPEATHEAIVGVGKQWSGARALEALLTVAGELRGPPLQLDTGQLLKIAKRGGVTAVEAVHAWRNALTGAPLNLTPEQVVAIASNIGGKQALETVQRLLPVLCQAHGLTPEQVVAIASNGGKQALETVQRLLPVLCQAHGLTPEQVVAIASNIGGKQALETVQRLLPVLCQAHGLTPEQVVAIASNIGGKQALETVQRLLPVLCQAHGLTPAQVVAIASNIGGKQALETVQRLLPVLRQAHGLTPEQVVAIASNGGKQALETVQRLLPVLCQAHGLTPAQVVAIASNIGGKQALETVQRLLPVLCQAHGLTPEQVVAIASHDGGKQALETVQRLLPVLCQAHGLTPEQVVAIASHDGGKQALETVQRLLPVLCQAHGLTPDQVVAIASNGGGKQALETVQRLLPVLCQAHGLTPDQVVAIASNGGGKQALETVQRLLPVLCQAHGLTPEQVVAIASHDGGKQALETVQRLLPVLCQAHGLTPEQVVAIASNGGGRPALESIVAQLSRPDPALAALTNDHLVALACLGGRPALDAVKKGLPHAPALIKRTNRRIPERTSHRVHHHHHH
Description: cell_activity; E. coli. How it is done:
as §1, §2

B1: Gin18TALE+1 (dsDNA)
DNA 1: AGAAGGTATTTATATCCAAAACCATGGTTTACAATATAAATACCTTCT
DNA 2: B1 DNA 1 with C16T, C17G, A18T, A31T, C32G, A33G
Regarding B1, the activity in series [1] and in series [2] was 1 score throughout.
